# Molecular target: T1, SWIP-MUT-HA (human WASHC4 P1019R) (human, UniProt Q2M389 1-1173, P1019R)
# T1 construct: SWIP (WASHC4), human, with the patients' variant c.3056C>G, p.Pro1019Arg, made by site-directed mutagenesis of pmCAG-SWIP-WT-HA; The mutation occurs in human patients (Ropers et al., 2011); also called SWIP^P1019R; MUT SWIP; source: HEK293T, transfected (pmCAG-SWIP-MUT-HA), in lysate
# T1 sequence (looked up): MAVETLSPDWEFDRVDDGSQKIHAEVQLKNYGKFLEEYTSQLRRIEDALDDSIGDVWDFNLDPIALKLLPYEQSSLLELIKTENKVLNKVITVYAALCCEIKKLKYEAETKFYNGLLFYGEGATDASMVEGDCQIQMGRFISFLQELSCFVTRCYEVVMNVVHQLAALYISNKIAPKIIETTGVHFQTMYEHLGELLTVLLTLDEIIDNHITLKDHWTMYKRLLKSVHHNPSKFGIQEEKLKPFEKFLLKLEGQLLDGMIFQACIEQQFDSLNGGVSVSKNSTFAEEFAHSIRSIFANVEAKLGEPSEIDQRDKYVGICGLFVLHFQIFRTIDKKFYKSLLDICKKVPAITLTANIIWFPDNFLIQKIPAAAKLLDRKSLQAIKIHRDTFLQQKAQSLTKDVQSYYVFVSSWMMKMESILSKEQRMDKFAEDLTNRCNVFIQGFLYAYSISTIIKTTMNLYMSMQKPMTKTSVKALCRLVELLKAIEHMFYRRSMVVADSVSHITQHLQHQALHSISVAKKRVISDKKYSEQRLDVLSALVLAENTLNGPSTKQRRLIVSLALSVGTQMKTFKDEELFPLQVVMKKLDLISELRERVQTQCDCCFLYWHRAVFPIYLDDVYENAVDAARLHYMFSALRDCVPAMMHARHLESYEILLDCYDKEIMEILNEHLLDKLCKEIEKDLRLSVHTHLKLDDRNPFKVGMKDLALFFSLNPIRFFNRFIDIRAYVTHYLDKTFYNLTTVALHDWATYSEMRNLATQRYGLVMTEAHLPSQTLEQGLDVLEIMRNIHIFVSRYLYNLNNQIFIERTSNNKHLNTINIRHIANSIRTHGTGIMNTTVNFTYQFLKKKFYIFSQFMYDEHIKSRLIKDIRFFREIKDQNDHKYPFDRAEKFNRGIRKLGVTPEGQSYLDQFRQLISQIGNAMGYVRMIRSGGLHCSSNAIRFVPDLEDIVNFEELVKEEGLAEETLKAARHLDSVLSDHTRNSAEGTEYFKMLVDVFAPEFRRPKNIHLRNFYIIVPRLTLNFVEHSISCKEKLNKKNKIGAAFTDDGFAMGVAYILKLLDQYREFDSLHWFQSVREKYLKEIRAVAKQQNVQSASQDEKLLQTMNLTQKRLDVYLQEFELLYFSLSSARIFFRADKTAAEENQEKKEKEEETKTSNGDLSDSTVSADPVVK
# Assay: co-IP; HEK293T transfected with SWIP-WT-HA or SWIP-MUT-HA for three days; lysis buffer 25 mM HEPES, 150 mM NaCl, 1 mM EDTA, 1% Nonidet P-40, pH 7.4; anti-HA agarose beads 2 hr at 4°C; blots for WASH1, Strumpellin and HA; band intensities normalised to WT
# Conditions: partners not purified
row,Binder,"amount co-immunoprecipitated, % of WT SWIP"
1,"WASH1 (WASHC1), human (natural protein, human (endogenous in HEK293T), UniProt A8K0Z3 1-465, looked up, WASH1 (WASHC1), endogenous in HEK293T cells, detected with an anti-WASH1 C-terminal antibody; Human cells carry several near-identical WASH paralogues; source: endogenous, HEK293T lysate) MTPVRMQHSLAGQTYAVPFIQPDLRREEAVQQMADALQYLQKVSGDIFSRISQQVEQSRSQVQAIGEKVSLAQAKIEKIKGSKKAIKVFSSAKYPAPGRLQEYGSIFTGAQDPGLQRRPRHRIQSKHRPLDERALQEKLKDFPVCVSTKPEPEDDAEEGLGGLPSNISSVSSLLLFNTTENLYKKYVFLDPLAGAVTKTHVMLGAETEEKLFDAPLSISKREQLEQQVPENYFYVPDLGQVPEIHVPSYLPDLPGIANDLMYSADLGPGIAPSAPGTIPELPTFHTEVAEPLKVDLQDGVLTPPPPPPPPPPAPEVLASAPPLPPSTAAPVGQGARQDDSSSSASPSVQGAPREVVDPSGGWATLLESIRQAGGIGKAKLRSMKERKLEKQQQKEQEQVRATSQGGHLMSDLFNKLVMRRKGISGKGPGAGEGPGGAFVRVSDSIPPLPPPQQPQAEEDEDDWES",41.4 % of WT
2,"Strumpellin (WASHC5), human (natural protein, human (endogenous in HEK293T), UniProt Q12768 1-1159, looked up, Strumpellin (WASHC5), endogenous in HEK293T cells, detected with an anti-Strumpellin antibody; source: endogenous, HEK293T lysate) MLDFLAENNLCGQAILRIVSCGNAIIAELLRLSEFIPAVFRLKDRADQQKYGDIIFDFSYFKGPELWESKLDAKPELQDLDEEFRENNIEIVTRFYLAFQSVHKYIVDLNRYLDDLNEGVYIQQTLETVLLNEDGKQLLCEALYLYGVMLLVIDQKIEGEVRERMLVSYYRYSAARSSADSNMDDICKLLRSTGYSSQPGAKRPSNYPESYFQRVPINESFISMVIGRLRSDDIYNQVSAYPLPEHRSTALANQAAMLYVILYFEPSILHTHQAKMREIVDKYFPDNWVISIYMGITVNLVDAWEPYKAAKTALNNTLDLSNVREQASRYATVSERVHAQVQQFLKEGYLREEMVLDNIPKLLNCLRDCNVAIRWLMLHTADSACDPNNKRLRQIKDQILTDSRYNPRILFQLLLDTAQFEFILKEMFKQMLSEKQTKWEHYKKEGSERMTELADVFSGVKPLTRVEKNENLQAWFREISKQILSLNYDDSTAAGRKTVQLIQALEEVQEFHQLESNLQVCQFLADTRKFLHQMIRTINIKEEVLITMQIVGDLSFAWQLIDSFTSIMQESIRVNPSMVTKLRATFLKLASALDLPLLRINQANSPDLLSVSQYYSGELVSYVRKVLQIIPESMFTSLLKIIKLQTHDIIEVPTRLDKDKLRDYAQLGPRYEVAKLTHAISIFTEGILMMKTTLVGIIKVDPKQLLEDGIRKELVKRVAFALHRGLIFNPRAKPSELMPKLKELGATMDGFHRSFEYIQDYVNIYGLKIWQEEVSRIINYNVEQECNNFLRTKIQDWQSMYQSTHIPIPKFTPVDESVTFIGRLCREILRITDPKMTCHIDQLNTWYDMKTHQEVTSSRLFSEIQTTLGTFGLNGLDRLLCFMIVKELQNFLSMFQKIILRDRTVQDTLKTLMNAVSPLKSIVANSNKIYFSAIAKTQKIWTAYLEAIMKVGQMQILRQQIANELNYSCRFDSKHLAAALENLNKALLADIEAHYQDPSLPYPKEDNTLLYEITAYLEAAGIHNPLNKIYITTKRLPYFPIVNFLFLIAQLPKLQYNKNLGMVCRKPTDPVDWPPLVLGLLTLLKQFHSRYTEQFLALIGQFICSTVEQCTSQKIPEIPADVVGALLFLEDYVRYTKLPRRVAEAHVPNFIFDEFRTVL",54.8 % of WT

# Source: article PMC7984842, “Genetic disruption of WASHC4 drives endo-lysosomal dysfunction and cognitive-movement impairments in mice and humans” (eLife, 2021)
